Results on one substance are retold here after publication doi:10.1101/2025.08.08.669345.

The target of assay [1] is mouse melanocortin 1 receptor (mouse) (UniProt Q01727).
For assay [2], the target named is mouse melanocortin 4 receptor (mouse) (UniProt P56450).
UniProt P56450, sequence (P56450 whole entry): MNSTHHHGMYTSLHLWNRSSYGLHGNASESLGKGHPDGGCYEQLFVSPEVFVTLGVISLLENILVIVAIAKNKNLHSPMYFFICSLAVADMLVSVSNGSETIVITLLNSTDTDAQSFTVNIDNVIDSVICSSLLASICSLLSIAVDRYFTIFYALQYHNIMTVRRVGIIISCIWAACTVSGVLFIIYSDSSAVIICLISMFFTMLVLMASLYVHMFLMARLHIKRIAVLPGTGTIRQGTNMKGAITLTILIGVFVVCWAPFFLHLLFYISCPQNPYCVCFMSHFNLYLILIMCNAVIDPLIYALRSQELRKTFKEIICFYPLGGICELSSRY

UniProt Q01727, sequence (Q01727 whole entry): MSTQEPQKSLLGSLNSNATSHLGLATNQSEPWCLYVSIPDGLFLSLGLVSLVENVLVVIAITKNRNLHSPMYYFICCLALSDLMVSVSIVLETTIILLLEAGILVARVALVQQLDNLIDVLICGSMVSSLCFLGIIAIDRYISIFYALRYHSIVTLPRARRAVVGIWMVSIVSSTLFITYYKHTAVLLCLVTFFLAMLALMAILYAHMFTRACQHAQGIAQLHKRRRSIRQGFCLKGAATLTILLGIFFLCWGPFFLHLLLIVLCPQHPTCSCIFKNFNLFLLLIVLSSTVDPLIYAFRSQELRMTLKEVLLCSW

In assay [1], “α-melanocyte-stimulating hormone (peptide)” returned an EC50 of cAMP production (EPAC BRET sensor), HEK293 cells expressing mMC1R, 3 min of 4.8 nM. Moreover, in assay [2], the EC50 of cAMP production (EPAC BRET sensor), HEK293 cells expressing mMC4R, 3 min was 11.5 nM.
